According to the supplement of paper PMC9170038:

System: MS2 coat protein
Experiment: apparent KD of MS2 coat protein; designed switch direction (-1 OFF switch, 1 ON switch): -1; higher = weaker reporter binding
How it was run: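 RNA switches sharing common flanks were transcribed by stalled E. coli RNA polymerase on Illumina chips. A doubling series of SNAP-549-labelled MS2 coat protein, from 0.7 or 1.5 nM to 3 µM, was applied in Tris-HCl pH 7.5 buffer with KCl, MgCl2, BSA, DTT, tRNA and Tween-20. Each step lasted 0.8–1.5 h at the bottom of the series and 10–20 min at the top. Normalised cluster fluorescence was curve-fitted, giving apparent KD as the per-design median over clusters.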

[1] = Eterna round: R95, input ligand: microRNA oligo, concentration not stated
[2] = Eterna round: R95, input ligand: FMN 200 uM
[3] = Eterna round: R95, input ligand: none
[4] = input ligand: microRNA oligo, concentration not stated

With “AAUAACAGAGGAUAUACUGUUUUAUGUGUUUAUUGUUUUGAACAUGAGGAUCACCCAUGUAGAAGGCUGAAUAA [JMF 25] (puzzle: Exclusion 2)” the “apparent KD of MS2 coat protein” value [1] was 20.1 nM.
“AAUAAGAGAGGAUAUACUAAAAUAUGAAUAAAAUAAAUAAAACAUGAGGAUCACCCAUGUAGAAGGCUCAAUAA [JMF's Not so obvious solution 6] (puzzle: Exclusion 2)” was tested, and the “apparent KD of MS2 coat protein” value [2] was 23.1 nM, the “apparent KD of MS2 coat protein” value [1] was 19.2 nM and the “apparent KD of MS2 coat protein” value [3] was 24.7 nM.
With “AAUAAUAAGGAGGAUAUCGUAUCGGAAACGAUACGAGAAGGCUUAACAUGAGGAUCACCCAUGUUCCUCAAUAA [Fiskers Ex 6 - 22] (puzzle: Exclusion 6)” the “apparent KD of MS2 coat protein” value [1] was 33.5 nM.
In the case of “AAUAAUCAUGUAGGAUAUGCGUGGCAAAGCUAUGCAGAAGGACAUGAGGAUCACCCAUGUUCUAGCGUCUGCGUACAGAUGCUA [Mat - Exclusion NG 1 - Mod of JL - D80] (Eterna round: R96, puzzle: Exclusion NG 1)”, the “apparent KD of MS2 coat protein” value (input ligand: FMN 200 uM) is reported as 246 nM, the “apparent KD of MS2 coat protein” value [4] is reported as 29.1 nM and the “apparent KD of MS2 coat protein” value (input ligand: none) is reported as 37.2 nM.
“AAUAGCAAGUAAGAUCCUAACAUGAGGAUCACCCAUGUGCUCGUCUUAUAAAGUACUAUCACGAAAGUGAUAGUACA [Sensor 3, v1 - 47] (puzzle: Sensor v3, turn-off variant 1)” was tested, and the “apparent KD of MS2 coat protein” value [2] was 64.8 nM, the “apparent KD of MS2 coat protein” value [1] was 51.4 nM and the “apparent KD of MS2 coat protein” value [3] was 74.3 nM.
For “AAUAUACAUGUAGGAUAUCUGCACGUUUAGUGCAGAGAAGGACAUGAGGAUCACCCAUGUAAUUAAGAUCAAUUAUUAAAUAUU [ENG1/3-B2] (Eterna round: R96, puzzle: Exclusion NG 1)”, the “apparent KD of MS2 coat protein” value (input ligand: FMN 200 uM) was 437 nM, the “apparent KD of MS2 coat protein” value [4] was 39.6 nM and the “apparent KD of MS2 coat protein” value (input ligand: none) was 63 nM.
In the case of “AAUCCACAUGAGGAUCACCCAUGUGAGGAUAUGAUACUAUGUACUUCGGUACAUAGUAUCAGAAGGCACAAAGG [Ex1-3: 52] (puzzle: Exclusion 1)”, the “apparent KD of MS2 coat protein” value [1] is reported as 56 nM.
With “AAUCGAUCGCCGUACGCACACAUGAGGAUCACCCAUGUAGCUGAGGAUAUCCACCCAUAACGGUCGGAGAAGGCGGGACUGGGA [Eraananbi] (Eterna round: R96, puzzle: Exclusion NG 3)” the “apparent KD of MS2 coat protein” value (input ligand: FMN 200 uM) was 30.8 nM, the “apparent KD of MS2 coat protein” value [4] was 11.3 nM and the “apparent KD of MS2 coat protein” value (input ligand: none) was 19.1 nM.
In the case of “AAUGAUUGACGAGGAUAUUGUGGUGAAACACGACGAGAAGGCGUAUGUCACAUGAGGAUCACCCAUGUGAGCUUUGUGGAUAUA [Ex NG1 #68] (Eterna round: R96, puzzle: Exclusion NG 1)”, the “apparent KD of MS2 coat protein” value (input ligand: FMN 200 uM) is reported as 34.7 nM, the “apparent KD of MS2 coat protein” value [4] is reported as 24.1 nM and the “apparent KD of MS2 coat protein” value (input ligand: none) is reported as 34.1 nM.
With “AAUGUCUGAGGAUAUCGAAUAGUGUACAUGAGGAUCACCCAUGUUUUUAUUAGUAUAUUACGAGAAGGCAGUGGAA [JR_E5_Sub086] (puzzle: Exclusion 5)” the “apparent KD of MS2 coat protein” value [1] was 16.1 nM.
With “AAUUAAUAUCAGGAUAUGACUUUCGAUAUUUAGUCAGAAGGGAUGACAUGAGGAUCACCCAUGUGAUCAAUUAA [JR_Ex6_Sub027] (Eterna round: R97, puzzle: Exclusion 6)” the “apparent KD of MS2 coat protein” value (input ligand: FMN 200 uM) was 101 nM and the “apparent KD of MS2 coat protein” value (input ligand: none) was 37.7 nM.
For “AAUUAGCAAGCAAGAUCCCACAUGAGGAUCACCCAUGUGCUCGUCUUAUAAGGUACUGUGACGAAAGUCACGGUACC [Mat - Sensor, turn-off var - Eli Mod - D50] (Eterna round: R97, puzzle: Sensor, turn-off variant 1)”, the “apparent KD of MS2 coat protein” value (input ligand: FMN 200 uM) was 50.2 nM and the “apparent KD of MS2 coat protein” value (input ligand: none) was 54.8 nM.
“AAUUAGCAAGCGAGAUCCCACAUGAGGAUCACCCAUGUGCUCGUCUUAUAAGGUACUGUGACGAUAGUCACGGUACC [Mat - Sensor, turn-off var - Eli Mod - D20] (Eterna round: R97, puzzle: Sensor, turn-off variant 1)” was tested, and the “apparent KD of MS2 coat protein” value (input ligand: FMN 200 uM) was 15.6 nM and the “apparent KD of MS2 coat protein” value (input ligand: none) was 13.5 nM.
“AAUUAGCAAGCGAGAUCCCACAUGAGGAUCACCCAUGUGCUCGUCUUAUAUAAGGUACUGUACGAAAGUACGGUACC [Mat - Sensor, turn-off var - Eli Mod - D31] (Eterna round: R97, puzzle: Sensor, turn-off variant 1)” was tested, and the “apparent KD of MS2 coat protein” value (input ligand: FMN 200 uM) was 16.4 nM and the “apparent KD of MS2 coat protein” value (input ligand: none) was 16.4 nM.
With “AAUUCACAUGAGGAUCACCCAUGUCAGGAUAUGGUUUCACGUGUUUCUGUGCUUGAGGCCAGAAGGGACAGCUA (puzzle: Exclusion 1)” the “apparent KD of MS2 coat protein” value [1] was 50.3 nM.
For “AAUUCACAUGAGGAUCACCCAUGUGAGGAUAUGGAUUCGCUGGCCGUAGCCAGUGGAUCCAGAAGGCGCGUGAU [JL-ex1-4.27] (Eterna round: R97, puzzle: Exclusion 1)”, the “apparent KD of MS2 coat protein” value (input ligand: FMN 200 uM) was 60.5 nM and the “apparent KD of MS2 coat protein” value (input ligand: none) was 46.8 nM.
For “AAUUGGUUAGGAUAUCGGGAAUAUCACAUGAGGAUCACCCAUGUGACCUUUAUGGUGUCAUGAGAAGGGACGCGGA [Eternabot (L1) Solution 11] (Eterna round: R97, puzzle: Exclusion 5)”, the “apparent KD of MS2 coat protein” value (input ligand: FMN 200 uM) was 27.9 nM and the “apparent KD of MS2 coat protein” value (input ligand: none) was 24.5 nM.
With “AAUUUAACAUAGGAUAUCGAAUUUAUCAUUUAACGAGAAGGAUGAACAUGAGGAUCACCCAUGUGGUAUCAUGG [Mat - Exclusion 6 - JL Mod - D2] (puzzle: Exclusion 6)” the “apparent KD of MS2 coat protein” value [2] was 155 nM, the “apparent KD of MS2 coat protein” value [1] was 373 nM and the “apparent KD of MS2 coat protein” value [3] was 180 nM.
In the case of “AAUUUAACAUAGGAUAUCGAAUUUAUUAUUUAACGAGAAGGAUGAACAUGAGGAUCACCCAUGUGGUAUCAUGG [Mat - Exclusion 6 - JL Mod - D22] (puzzle: Exclusion 6)”, the “apparent KD of MS2 coat protein” value [2] is reported as 100 nM, the “apparent KD of MS2 coat protein” value [1] is reported as 109 nM and the “apparent KD of MS2 coat protein” value [3] is reported as 174 nM.
In the case of “AAUUUACAUGAGGAUCACCCAUGUCAGGAUAUGGUUUUAUUUUUUUCUUUUCUUGAUUCCAGAAGGGACAGUUA (puzzle: Exclusion 1)”, the “apparent KD of MS2 coat protein” value [1] is reported as 81.6 nM.
In the case of “AAUUUACAUGAGGAUCACCCAUGUGAGGAUAUAUAAAUAUAUAUGUUAUUGUAUGUUUGUAGAAGGCGCGUGAU [JR_Exc1_Sub031] (Eterna round: R97, puzzle: Exclusion 1)”, the “apparent KD of MS2 coat protein” value (input ligand: FMN 200 uM) is reported as 145 nM and the “apparent KD of MS2 coat protein” value (input ligand: none) is reported as 83.3 nM.
With “AAUUUACAUGAGGAUCACCCAUGUGAGGAUAUAUGUAAACAAUUUUUAUUCAUCAAACAUAGAAGGCGCGUGAU [JR_Exc1_Sub044] (Eterna round: R97, puzzle: Exclusion 1)” the “apparent KD of MS2 coat protein” value (input ligand: FMN 200 uM) was 41.3 nM and the “apparent KD of MS2 coat protein” value (input ligand: none) was 42.6 nM.
For “AAUUUACAUGAGGAUCACCCAUGUGAGGAUAUAUGUUUUAAUUUUUUUUUUUUUUUACAUAGAAGGCGCGUGAU [JR_Exc1_Sub046] (Eterna round: R97, puzzle: Exclusion 1)”, the “apparent KD of MS2 coat protein” value (input ligand: FMN 200 uM) was 51.7 nM and the “apparent KD of MS2 coat protein” value (input ligand: none) was 58.5 nM.
For “AAUUUACAUGAGGAUCACCCAUGUGAGGAUAUUGUAUAUUUAUAGAAAUGUGGGUGUGCAAGAAGGCACAUAGG [Alacar 2] (Eterna round: R97, puzzle: Exclusion 1)”, the “apparent KD of MS2 coat protein” value (input ligand: FMN 200 uM) was 134 nM and the “apparent KD of MS2 coat protein” value (input ligand: none) was 63.6 nM.
In the case of “AAUUUUUGAUACCUUUAAUACAUGAGGAUCACCCAUGUUAUCGAGGAUAUGUAGAUGAAAUGAGAACAGAAGGCGAAGUAAGAG [JR_ExcNG3_Sub099] (Eterna round: R96, puzzle: Exclusion NG 3)”, the “apparent KD of MS2 coat protein” value (input ligand: FMN 200 uM) is reported as 41.5 nM, the “apparent KD of MS2 coat protein” value [4] is reported as 3.24 nM and the “apparent KD of MS2 coat protein” value (input ligand: none) is reported as 15.6 nM.
“ACAAAGUGAGGAUAUACUAAAACCCUCAUACCCAAAAGGGAACAUGAGGAUCACCCAUGUAGAAGGCACAUAAU [Esmainleor] (puzzle: Exclusion 2)” was tested, and the “apparent KD of MS2 coat protein” value [2] was 549 nM, the “apparent KD of MS2 coat protein” value [1] was 100 nM and the “apparent KD of MS2 coat protein” value [3] was 92.3 nM.
